In the supplement of paper PMC11502859 one finds median enrichment data, which are given here for 105 substances.

This series concerns HEK293T. The series is described as follows: median enrichment of reporter reads in eGFP-reduced (low/intermediate) vs eGFP-high sorted cells (eGFP-extension fusion abundance) (ratio); higher = stronger loss of eGFP-fusion protein abundance (more destabilising extension).
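Also: lentiviral eGFP-IRES-mCherry reporter pool sorted by FACS 96 h post-transduction, gated on mCherry-high cells, Illumina read counts normalized per million, median across four biological replicates.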

For SLYRLRR [ST3GAL6], the median enrichment worked out at 3.73. For the substance RPSTKGPPSWCSITSFLKGISFFTTLS [FANCE], the median enrichment is 13.8. In the case of WQRRS [GIMAP1], the median enrichment stood at 0.693. The figure for CSLG [MAGEC2] is 0.658; for NNNNN [Asn05] it is 0.217; for SHVGQIKRQLQK [CTSO] it is 0.527. Take “DNPHPHCFWGSLSHLSHPVSCLCLSWCLSGLLSVSFCLSVSLPTPAPSFQCSGWLSLPFSPSLSALGSVSTAGPKVKVLPLPE [CCDC97]”: the median enrichment is 5.65. In the case of “LRPHKHYGRSVGPQHGLPSGRPVLPEEGPACWPGACRHC [ZGPAT]”, the median enrichment was 6.53. Regarding “WVSAVLGTPAHSTLLEYLFPNATSVCFFLFPQSLSVSEPWAL [LALBA]”, the median enrichment came to 10.8.

On to “WARSAVSSQWILVNWWRLADTLEKPKPESLLFSLFSCLCSVSLNTTFSAMVCG [MRFAP1]”, for which the median enrichment stood at 5.48. As for CVSSFTDSPQPFSCLKT [DPH6], the median enrichment stood at 3.83. The figure for “LNREKKLQVVLKEMQLFKSLCIVLILFTMCNHLENGYFYNLNNKQVLS [C8orf34]” is 2.33. The figure for RGPASHGPRTMESPLSS [GNB1L] is 0.533; for “LARAPSGGITDLMTTLALLPCRVQVLSPHFHLPAPRGPFPFMGLPPSDAQEGSSAMTGLLPLTSREHPLDLGRWWSQGWAAYF [PCDH1]” it is 6.44; for WRPRIQH [FAR1] it is 1.02.

As for YNYLLNQDKHAFLLPWFYL [NCKAP1], the median enrichment stood at 8.38. Regarding GRNQQSTSAGQQPREPLPTRIAGSVTEQAG [ETV6], the median enrichment stood at 4.01. To WCPGVCCLAHMSLL [CLSTN2] belongs 5.25; to SATCPKA [NOL4L], 0.348. With “ELLPLSTRSSWQRELRTAAALSVRWRPTSRFCPALCG [ACVR1B]”, the median enrichment amounted to 9.04. On to “SRDLDLGGVVRSSGRVPPGSPGEYMSPALGGVCYWPPTFLPRWTVLL [OXCT2]”, for which the median enrichment came to 3.71. Consider KKEKKQAILDENANGKIHITSYLL [PRDM4], for which the median enrichment came to 6.45. To “RGHRSEMRGLECGWAPGAMGGCGAGEIKSELLLPGVPTSSSGQSVHSQPDR [BCL2]” belongs 1.46; to SASAEVTEKPYDDVPDFSVGRSRPVA [TCF25], 0.734. To LVLIPTFPCDLGCRCSCCKMEANLTGVL [ADD2] belongs 2.88; to HHHHHH [His06], 0.337; to WSPLSRDSGKGGFLHPTPLLPWL [KIAA1191], 5.6. For QGLQKNWPWGTKAFFSGLLPRP [KANK4], the median enrichment turned out to be 4.85. For YMHCSGS [STT3B], the median enrichment was determined as 2.33. With “YRSRHLPQTWGGGPASSSTTLAPSLLTWVLAF [SCRIB]”, the median enrichment was found to be 13.1. On to YPDPHRCCDLFVLSTVE [FGF14], for which the median enrichment is 9.33.

For the substance “YQFCPTSLSPQPLQSSVTCCGLYSGSALATSPNISSSFSPSDLTVQ [JOSD1]”, the median enrichment stood at 7.58.

“SQREENILVLFFFQKKRKIKEIYPLLPLHLSQ [SLITRK3]”: the median enrichment is 40.1.

In the case of SQAGMSPGSLARVGPQ [TXN2], the median enrichment was 0.38. Consider LGKLPCRA [ZNF75D], for which the median enrichment amounted to 0.566. Consider “HLPIPASLARALLGPEQRRTCPTHTAIYSSRHRAPLPYSWSQQPGNGVALHWPLASTLSGAPAVGWGTPAKDQFGCLIPGAVT [CRHR2]”, for which the median enrichment was 3.84. Consider “CPSGPPLPLGQGNQLLRDFSCLEGAVIAPPHCPTVLLGL [FBXW4]”, for which the median enrichment turned out to be 12.6. On to YPSLCHWVECAFRAS [ARHGEF6], for which the median enrichment came out at 7.57. Regarding FFFFFFFFFF [Phe10], the median enrichment was determined as 7.03. For “SGLLPLGPLTLSGWWTTKYNPVYNLKIYFTFVLLYLFIKG [SMAD4]”, the median enrichment was 7.74. In the case of “QRTTEHLVSQNGLTTVSTTYSQMSISTSVELK [CYLC1]”, the median enrichment worked out at 1.57. Consider SEPSHSLSPLPCLPHLPPTTRA [RAB3A], for which the median enrichment came to 0.136. LRCQLPSEQAGGICHTAPPLG [SMPD4]: the median enrichment is 2.92. For the substance “SMALVALEWDPALTSPRANLGGAEGALGHRKQGKKGRSCGEMTLIFDCYPNLDL [NDRG2]”, the median enrichment was determined as 7.41.

For the substance SVGTAQWRRGYSPG [HTR3A], the median enrichment was determined as 28. Consider “LHGFQASGSLTISLLRVSPGNCLTKSQAQGLLSIYLISERLF [LIMCH1]”, for which the median enrichment was determined as 33.9. Take CCCCC [Cys05]: the median enrichment was 4.25.

Turning to CARAALEAPARGICPYPSWKDSWMW [HCRTR1], the median enrichment was 10.8.

For “QLSLPPQPGSPALESSVLHAEDAPSLDWSGLLPNDIAQRLWSRHPAEWGPRGCQLGALPLAATLWSGRVLHHQEDPILSSVSC [INAFM1]”, the median enrichment amounted to 4.8. In the case of YDGR [ZNF772], the median enrichment came out at 0.299. On to “SSMMHGDFHFHIFPFFCFCFSRNGGNPVYSMPVLSYSSLLLYILLLYQKN [HIVEP2]”, for which the median enrichment turned out to be 33.7.

For the substance WWPRIPIEQHKARLG [RNF216], the median enrichment is 26.7.

As to QSMF [TMEM196], the median enrichment was found to be 0.507. Regarding ENSSSTMDFRLLVAVLT [ELF2], the median enrichment was 7.29.

For “YILNLVCRPSRGIKRLALVVKNKADSQTRSDFCPCSSFDVLSVALFLIASSTCKMLFTFCLG [DAB2]”, the median enrichment was 7.19. With “KKKKKQQVMELHILVTQWTIIGSHWKSGKNPWRLSFSDILPNALLSRIFVSFCLIFWGVFVVVGLFFVFFF [PPP1R12A]”, the median enrichment came out at 4.71.

Consider CCCCCCCCCC [Cys10], for which the median enrichment was determined as 9.58. To YAPRR [OTUD6A] belongs 0.578; to SYGTLAPRHEARWPVFLNLKCKILLFPGPRRV [ICOS], 11; to LQPIYLFISLWGLTH [GUCY1A1], 15.3.

Regarding VGTMAAGRAPGK [Degron APPBP2], the median enrichment turned out to be 6. As for “WPGGGKHREREWPSGNPAGYPNPKGSYSQRHILVFVIILYQK [VPS26C]”, the median enrichment turned out to be 16.9. The figure for KEHLWFT [NPAP1] is 1.2. To “NLYSLESMSCVYSTIRNLILFLLLFLQKQKLILKSIIMGWGGGCPQDMQDFCRGQHRFWDCEAVSEGGQAVWMAGLMLFRIKC [SETD4]” belongs 13.5; to “SVWAGLFNMVFAVLPPWGPWSDNIVSLVRLSRCLIRTANGASPTPPRVRPPFHQRVSSQRPPASCPAAQEEKEGLNSIAIFFP [PDGFB]”, 7.44; to YFFI [ATP2B1], 9.67. On to YEKHFGILSIMILCYRHRECCIQ [FASLG], for which the median enrichment is 3.75. For “RDALAMAQEKPARKNQTDFHTKEEASIFFFLFFIGVVTKPFRLLLFKI [QRICH1]”, the median enrichment turned out to be 33. As to “RQGRLRGQAGGQQLQEGSDNSPPAWAHLLLLLLLGSAPQTRLWPPSQCPVTSPE [CRACR2B]”, the median enrichment turned out to be 9.74.

Turning to SAVKFF [INTS8], the median enrichment is 0.917. As for YPGGRVAAGGACAEAS [SLC7A5], the median enrichment amounted to 1.04. On to RRPVPR [TBC1D24], for which the median enrichment came out at 1.51. Take ECLSIKSGFAP [NPL]: the median enrichment turned out to be 0.687. The figure for YPILKVALFLLDLAELVAWGVGEIKRT [SPCS2] is 11.7; for YTHMYDPYKCFKILKM [TRDN] it is 11.1; for YPGSFYGHE [ZNF700] it is 0.482. To CSSVYELPFHSAFRNYILAFIFNLPTYFK [ATM] belongs 8.5; to “SAGSSPLVHSSQGQKGVDMINTESPTSTPTEFPARQCQKHFSREPKPNQEEAREEAGREEGAFPAPRFLKCRSDTCVGVHVLY [SWI5]”, 1.02. With GANASRAAVNLCKD [BDKRB2], the median enrichment came to 0.298.

For KKKKKK [Lys06], the median enrichment is 1.5. To SLKPITVLTAQWN [KCNA2] belongs 10.7; to LQNPNLELPMLLSYKHTDSGYS [ATP11C], 1.23; to WLVTEDEDNSITKLF [CD58], 17.6. The figure for QEKAIWDLITLNRHANTVCVRALCIQ [PCDH9] is 6.25; for YLISYYIF [PCDHB8] it is 5. As for QALGKKDCNQRKSIGVEEIKLTLFWLFF [GLI3], the median enrichment stood at 25.8. Take “RSPPHLRPKGRPPPAFLTPALLPQRMWGGGGGPCGPGAQLPGTPVPGQAHLEEESLPPPKYWAALSLPRDHPSLPAMCTIMTN [GPR108]”: the median enrichment was 3.35. On to LNFHTEF [TP53BP2], for which the median enrichment was 0.758. As for WQAGS [IFITM5], the median enrichment was determined as 0.552. As to LRLSISRDMVLTQQFPVMAKCSI [IL13RA2], the median enrichment was determined as 41.5.

Regarding YWVFGLTGARMDLQRQL [GPR149], the median enrichment stood at 5.42. The figure for “WFIFKGLCVTLTFPVVTCDCFVFVEEYCFYFEKRVFFLSMGLQGWCTTGPSMYSCIDFFT [CD109]” is 0.738; for CCTKDLLF [GNA13] it is 1.47. With RALLERLLCHPFAPERGSSQLS [DNPEP], the median enrichment turned out to be 9.53. Regarding “QESKSTLPSHHHGPTGYPEQLHTLLEVSRSLPA [ADAMTSL1]”, the median enrichment came to 2.98. Consider KQIKLDEIYNYLIAQ [MDH1B], for which the median enrichment was found to be 18.9. For the substance SRETVGG [JUN], the median enrichment turned out to be 3.4. Turning to WACYFHGVCQ [OR5D18], the median enrichment is 4.25. On to YGAPTFDFYLSSSWIF [HMGA2], for which the median enrichment was determined as 9.36. Regarding “EGLATPVKAVLLLDTISSSGRAVERESNFLLEEYLCLLTLN [CDC14A]”, the median enrichment amounted to 6.01. The figure for YVEGYKC [FIBIN] is 1.05. As to SNWGAFSPEQRGPRHAVERLHLPPFPGQQD [COX14], the median enrichment came out at 0.854. For “GEVLPGPRRGDREHHCHPGEPGAGAPGACRLRQGRCGRDDAALGCGVGSPKHPRQQPRPWPHQWHRGAPATGWPSGQPEHQGH [DECR2]”, the median enrichment was 0.598. For RGPEASWVSLGPQKLIKE [PCP2], the median enrichment came out at 0.815. Consider KTAPPTSVQAGRSP [NCAPD3], for which the median enrichment turned out to be 7.59.
